Laboratory results as given in publication doi:10.1101/2022.06.02.493408 (bioRxiv, 2022).
Read-outs that look alike come from different tables or passages of the source.

B1: BetP-ΔN29/E44E45E46/AAA (crystallization mutant BetP^cryst) (natural protein, Corynebacterium glutamicum, UniProt P54582 30-595, looked up)
chain: LENPTNLEGKLADAAAAIILEGEDTQASLNWSVIVPALVIVLATVVWGIGFKDSFTNFASSALSAVVDNLGWAFILFGTVFVFFIVVIAASKFGTIRLGRIDEAPEFRTVSWISMMFAAGMGIGLMFYGTTEPLTFYRNGVPGHDEHNVGVAMSTTMFHWTLHPWAIYAIVGLAIAYSTFRVGRKQLLSSAFVPLIGEKGAEGWLGKLIDILAIIATVFGTACSLGLGALQIGAGLSAANIIEDPSDWTIVGIVSVLTLAFIFSAISGVGKGIQYLSNANMVLAALLAIFVFVVGPTVSILNLLPGSIGNYLSNFFQMAGRTAMSADGTAGEWLGSWTIFYWAWWISWSPFVGMFLARISRGRSIREFILGVLLVPAGVSTVWFSIFGGTAIVFEQNGESIWGDGAAEEQLFGLLHALPGGQIMGIIAMILLGTFFITSADSASTVMGTMSQHGQLEANKWVTAAWGVATAAIGLTLLLSGGDNALSNLQNVTIVAATPFLFVVIGLMFALVKDLSNDVIYLEYREQQRFNARLARERRVHNEHRKRELAAKRRRERKASGAGKRR

Experiments:
[1] = target: WT BetP reconstituted in amphipol A8-35 (AMP-BetP) (Corynebacterium glutamicum) (UniProt P54582); experiment: cryo-EM structure
[2] = target: WT BetP reconstituted in amphipol A8-35 (AMP-BetP) (Corynebacterium glutamicum) (UniProt P54582); experiment: cryo-EM structure; remark: listed apart in the source
[3] = target: the molecule itself; experiment: crystal structure

| Molecule | stoichiometry N [1] | stoichiometry N [2] | stoichiometry N [3] |
| --- | --- | --- | --- |
| WT BetP reconstituted in amphipol A8-35 (AMP-BetP) (from UniProt P54582 1-595) (natural protein) | 3 | 3 |  |
| B1 |  |  | 3 |
